Results taken from PMC10663500, “High-throughput analysis system of interaction kinetics for data-driven antibody design” (Scientific Reports, 2023).

B1: toripalimab Fab, wild type (Fab, V domains shown)
VH: QGQLVQSGAEVKKPGASVKVSCKASGYTFTDYEMHWVRQAPIHGLEWIGVIESETGGTAYNQKFKGRVTITADKSTSTAYMELSSLRSEDTAVYYCAREGITTVATTYYWYFDVWGQGTTVTVSS
VL: DVVMTQSPLSLPVTLGQPASISCRSSQSIVHSNGNTYLEWYLQKPGQSPQLLIYKVSNRFSGVPDRFSGSGSGTDFTLKISRVEAEDVGVYYCFQGSHVPLTFGQGTKLEIK
notes: toripalimab Fab heavy chain; toripalimab stands in PDB 6JBT; toripalimab Fab light chain; also called WT; source: Brevibacillus, culture supernatant (ammonium sulfate precipitate); not shown: 6xHis, C-terminal, kept; 6xHN, C-terminal, kept
B2: toripalimab Fab H.I101Y (Fab, V domains shown)
VH: QGQLVQSGAEVKKPGASVKVSCKASGYTFTDYEMHWVRQAPIHGLEWIGVIESETGGTAYNQKFKGRVTITADKSTSTAYMELSSLRSEDTAVYYCAREGYTTVATTYYWYFDVWGQGTTVTVSS
VL: DVVMTQSPLSLPVTLGQPASISCRSSQSIVHSNGNTYLEWYLQKPGQSPQLLIYKVSNRFSGVPDRFSGSGSGTDFTLKISRVEAEDVGVYYCFQGSHVPLTFGQGTKLEIK
notes: heavy chain of Sm3 with this change; numbers count from the chain's first residue; as the light chain of Sm3; source: Brevibacillus, culture supernatant (ammonium sulfate precipitate); not shown: 6xHis, C-terminal, kept; 6xHN, C-terminal, kept
B3: toripalimab Fab H.T102Y (Fab, V domains shown)
VH: QGQLVQSGAEVKKPGASVKVSCKASGYTFTDYEMHWVRQAPIHGLEWIGVIESETGGTAYNQKFKGRVTITADKSTSTAYMELSSLRSEDTAVYYCAREGIYTVATTYYWYFDVWGQGTTVTVSS
VL: DVVMTQSPLSLPVTLGQPASISCRSSQSIVHSNGNTYLEWYLQKPGQSPQLLIYKVSNRFSGVPDRFSGSGSGTDFTLKISRVEAEDVGVYYCFQGSHVPLTFGQGTKLEIK
notes: as for B2
B4: toripalimab Fab H.I101A (Fab, V domains shown)
VH: QGQLVQSGAEVKKPGASVKVSCKASGYTFTDYEMHWVRQAPIHGLEWIGVIESETGGTAYNQKFKGRVTITADKSTSTAYMELSSLRSEDTAVYYCAREGATTVATTYYWYFDVWGQGTTVTVSS
VL: DVVMTQSPLSLPVTLGQPASISCRSSQSIVHSNGNTYLEWYLQKPGQSPQLLIYKVSNRFSGVPDRFSGSGSGTDFTLKISRVEAEDVGVYYCFQGSHVPLTFGQGTKLEIK
notes: as for B2
B5: toripalimab Fab H.T102A (Fab, V domains shown)
VH: QGQLVQSGAEVKKPGASVKVSCKASGYTFTDYEMHWVRQAPIHGLEWIGVIESETGGTAYNQKFKGRVTITADKSTSTAYMELSSLRSEDTAVYYCAREGIATVATTYYWYFDVWGQGTTVTVSS
VL: DVVMTQSPLSLPVTLGQPASISCRSSQSIVHSNGNTYLEWYLQKPGQSPQLLIYKVSNRFSGVPDRFSGSGSGTDFTLKISRVEAEDVGVYYCFQGSHVPLTFGQGTKLEIK
notes: as for B2
B6: toripalimab Fab H.G100Y (Fab, V domains shown)
VH: QGQLVQSGAEVKKPGASVKVSCKASGYTFTDYEMHWVRQAPIHGLEWIGVIESETGGTAYNQKFKGRVTITADKSTSTAYMELSSLRSEDTAVYYCAREYITTVATTYYWYFDVWGQGTTVTVSS
VL: DVVMTQSPLSLPVTLGQPASISCRSSQSIVHSNGNTYLEWYLQKPGQSPQLLIYKVSNRFSGVPDRFSGSGSGTDFTLKISRVEAEDVGVYYCFQGSHVPLTFGQGTKLEIK
notes: as for B2
B7: toripalimab Fab H.T103A (Fab, V domains shown)
VH: QGQLVQSGAEVKKPGASVKVSCKASGYTFTDYEMHWVRQAPIHGLEWIGVIESETGGTAYNQKFKGRVTITADKSTSTAYMELSSLRSEDTAVYYCAREGITAVATTYYWYFDVWGQGTTVTVSS
VL: DVVMTQSPLSLPVTLGQPASISCRSSQSIVHSNGNTYLEWYLQKPGQSPQLLIYKVSNRFSGVPDRFSGSGSGTDFTLKISRVEAEDVGVYYCFQGSHVPLTFGQGTKLEIK
notes: as for B2

The binders below were run against T1, human programmed cell death protein 1 (hPD-1) C93S (aa 24-167) (Homo sapiens, UniProt Q15116, C93S) (assay: SPR; Carterra LSA; Fab from the ammonium sulfate precipitate of the culture supernatant immobilised on a NiHC200M chip; hPD-1 (1-1024 nM) or mPD-1-Fc (4-1024 nM) as analyte, fourfold dilution series, no regeneration; HBS-EP pH 7.4, 25 °C; medians over the spots of a construct, KD = koff/kon). Details: one partner purified.
T1 construct: made as a fusion with a TEV site and human Fc; the Fc was cut off with TEV protease; source: Expi293F, purified (Protein A, TEV cleavage of Fc, SEC; monomer fractions); not shown: Fc (human), C-terminal, cleaved
T1 sequence (Q15116 24-167 C93S): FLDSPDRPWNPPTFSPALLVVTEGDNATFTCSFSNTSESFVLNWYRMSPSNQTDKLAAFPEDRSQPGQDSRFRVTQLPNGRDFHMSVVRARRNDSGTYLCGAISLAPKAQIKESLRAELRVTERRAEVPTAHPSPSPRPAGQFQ
Procedure, shortened: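 Fabs, ammonium sulfate-precipitated from Brevibacillus supernatants and redissolved in HBS-EP, were captured in duplicate on a NiHC200M chip on a Carterra LSA at 25 °C. Fourfold series of human PD-1 (1–1024 nM) or mouse PD-1-Fc (4–1024 nM) were run without regeneration, with association for 10 min and dissociation for 5 min. Rates were fitted with the kdka model, choosing the better of slow- or fast-dissociation settings, and unconfirmed binders were given kon 10^3 […] and koff 10^−2 s^−1. The dissociation constant KD is koff/kon based on per-construct medians.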
With B1 the Kd was under 0.841 nM, the koff was under 1e-05 s⁻¹ and the kon was 11900 M⁻¹ s⁻¹. In the case of B2, the Kd is reported as 54.5 nM, the koff is reported as 0.000227 s⁻¹ and the kon is reported as 4170 M⁻¹ s⁻¹. Binder B3 has a Kd of 200 nM, a koff of 0.00148 s⁻¹ and a kon of 7420 M⁻¹ s⁻¹. Binder B4 has a Kd of 107 nM, a koff of 0.000592 s⁻¹ and a kon of 5550 M⁻¹ s⁻¹. B5 gave a Kd of 65.9 nM, a koff of 0.000404 s⁻¹ and a kon of 6130 M⁻¹ s⁻¹. In the case of B6, the Kd is reported as 107 nM, the koff is reported as 0.00166 s⁻¹ and the kon is reported as 15500 M⁻¹ s⁻¹. B7 gave a Kd of under 1.2 nM, a koff of under 1e-05 s⁻¹ and a kon of 8350 M⁻¹ s⁻¹.
